According to patent publication US20260232827A1 (Zymeworks, published 2026):

Tests used:
[1] = molecular target: T1, human sodium-dependent phosphate transporter 2B (NaPi2b) (human, UniProt O95436 1-690); experiment: cell-based or functional assay
T1 sequence: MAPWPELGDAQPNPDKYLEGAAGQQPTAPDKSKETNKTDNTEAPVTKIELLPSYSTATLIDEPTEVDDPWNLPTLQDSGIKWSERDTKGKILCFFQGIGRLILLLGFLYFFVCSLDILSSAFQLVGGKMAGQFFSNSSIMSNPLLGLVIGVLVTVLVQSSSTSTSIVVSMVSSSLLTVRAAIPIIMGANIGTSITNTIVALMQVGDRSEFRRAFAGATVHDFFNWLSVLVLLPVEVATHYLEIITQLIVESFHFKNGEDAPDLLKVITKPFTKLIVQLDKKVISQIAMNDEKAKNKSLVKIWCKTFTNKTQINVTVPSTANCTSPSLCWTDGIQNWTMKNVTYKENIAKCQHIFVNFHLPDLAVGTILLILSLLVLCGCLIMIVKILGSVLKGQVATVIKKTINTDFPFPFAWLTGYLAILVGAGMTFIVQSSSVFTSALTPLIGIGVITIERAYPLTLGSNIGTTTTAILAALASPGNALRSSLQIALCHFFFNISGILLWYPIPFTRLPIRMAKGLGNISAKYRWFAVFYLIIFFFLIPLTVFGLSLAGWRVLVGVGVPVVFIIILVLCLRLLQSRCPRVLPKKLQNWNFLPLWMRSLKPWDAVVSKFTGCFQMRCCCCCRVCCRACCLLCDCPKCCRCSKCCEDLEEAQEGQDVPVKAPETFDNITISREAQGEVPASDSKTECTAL

[2] = molecular target: T1, human sodium-dependent phosphate …; experiment: flow cytometry on HEK293-6e cells transfected with human NaPi2b
mouse NaPi2b [3] = molecular target: T2, mouse NaPi2b (mouse, UniProt Q9DBP0 1-697); experiment: flow cytometry on HEK293-6e cells transfected with mouse NaPi2b
T2 construct: Transfected into HEK293-6e cells (clone CL_#13476); also called Ms NaPi2b
T2 sequence: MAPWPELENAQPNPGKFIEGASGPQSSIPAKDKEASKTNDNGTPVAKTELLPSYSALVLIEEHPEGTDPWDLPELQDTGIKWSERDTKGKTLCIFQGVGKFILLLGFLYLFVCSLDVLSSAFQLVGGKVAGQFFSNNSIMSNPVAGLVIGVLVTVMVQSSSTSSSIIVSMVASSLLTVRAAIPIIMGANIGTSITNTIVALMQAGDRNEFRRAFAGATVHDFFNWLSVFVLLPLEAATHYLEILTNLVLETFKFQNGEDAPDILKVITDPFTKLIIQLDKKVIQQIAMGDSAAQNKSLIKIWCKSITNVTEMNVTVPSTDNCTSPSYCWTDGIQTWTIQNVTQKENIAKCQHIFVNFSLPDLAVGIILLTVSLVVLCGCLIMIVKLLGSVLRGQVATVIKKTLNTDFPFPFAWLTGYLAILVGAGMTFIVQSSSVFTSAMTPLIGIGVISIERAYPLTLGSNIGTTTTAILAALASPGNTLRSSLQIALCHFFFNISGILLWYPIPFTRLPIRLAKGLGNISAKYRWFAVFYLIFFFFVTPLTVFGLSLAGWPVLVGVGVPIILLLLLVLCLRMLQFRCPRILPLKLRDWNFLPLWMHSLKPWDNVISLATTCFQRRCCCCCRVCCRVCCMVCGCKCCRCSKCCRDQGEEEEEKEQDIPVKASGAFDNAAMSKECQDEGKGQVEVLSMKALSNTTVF

[4] = molecular target: T1, human sodium-dependent phosphate …; experiment: flow cytometry on HEK293-6e cells transfected with human NaPi2b; remark: listed apart in the source
cynomolgus monkey NaPi2b [5] = molecular target: T3, cynomolgus monkey NaPi2b (cynomolgus monkey, UniProt O95436 1-690 (human entry)); experiment: flow cytometry on HEK293-6e cells transfected with cynomolgus NaPi2b
T3 construct: Transfected into HEK293-6e cells (clone CL_#13433); also called Cy NaPi2b; Cyno NaPi2b
T3 chain: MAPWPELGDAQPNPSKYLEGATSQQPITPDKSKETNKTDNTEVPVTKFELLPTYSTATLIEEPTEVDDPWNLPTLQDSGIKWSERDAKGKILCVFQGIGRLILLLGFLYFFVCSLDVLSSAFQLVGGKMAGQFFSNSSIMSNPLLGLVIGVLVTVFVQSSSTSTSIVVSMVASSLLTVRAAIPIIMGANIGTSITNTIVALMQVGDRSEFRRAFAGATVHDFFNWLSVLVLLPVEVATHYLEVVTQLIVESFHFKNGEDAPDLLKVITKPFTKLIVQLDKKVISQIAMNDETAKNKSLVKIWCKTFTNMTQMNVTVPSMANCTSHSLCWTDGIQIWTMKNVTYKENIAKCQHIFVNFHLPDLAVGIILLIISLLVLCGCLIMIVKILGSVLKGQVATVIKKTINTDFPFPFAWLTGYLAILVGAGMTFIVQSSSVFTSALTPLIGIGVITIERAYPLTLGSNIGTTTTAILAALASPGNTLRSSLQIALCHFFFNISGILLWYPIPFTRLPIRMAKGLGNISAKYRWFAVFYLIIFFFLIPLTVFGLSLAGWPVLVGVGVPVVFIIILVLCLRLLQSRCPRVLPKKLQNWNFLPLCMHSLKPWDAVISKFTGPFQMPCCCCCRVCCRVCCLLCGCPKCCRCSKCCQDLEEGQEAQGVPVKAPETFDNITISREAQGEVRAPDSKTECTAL

[6] = molecular target: T1, human sodium-dependent phosphate …; experiment: flow cytometry on IGROV-1 cells, 24 h at 4 C, anti-human IgG Fc AF647
[7] = molecular target: T1, human sodium-dependent phosphate …; experiment: flow cytometry on OVCAR-3 cells, 24 h at 4 C, anti-human IgG Fc AF647
mouse NaPi2b [8] = molecular target: T2, mouse NaPi2b; experiment: flow cytometry on HEK293-6e cells transfected with mouse NaPi2b, apparent Kd
cynomolgus monkey NaPi2b [9] = molecular target: T3, cynomolgus monkey NaPi2b; experiment: flow cytometry on HEK293-6e cells transfected with cynomolgus NaPi2b, apparent Kd
[10] = molecular target: T4, human NaPi2b (sodium-dependent phosphate transporter 2B) (human, UniProt O95436 1-690); experiment: cell-based or functional assay
T4 sequence: T1 sequence

[11] = molecular target: T4, human NaPi2b (sodium-dependent …); experiment: cell-based or functional assay; remark: listed apart in the source
[12] = molecular target: T4, human NaPi2b (sodium-dependent …); experiment: flow cytometry on H441 cells (endogenous NaPi2b), 24 h at 4 C
[13] = molecular target: T4, human NaPi2b (sodium-dependent …); experiment: flow cytometry on HCC-78 cells (endogenous NaPi2b), 24 h at 4 C
[14] = molecular target: T4, human NaPi2b (sodium-dependent …); experiment: flow cytometry on IGROV-1 cells (endogenous NaPi2b), 24 h at 4 C
[15] = molecular target: T5, human sodium-dependent phosphate transporter 2B (NaPi2b) (human, UniProt O95436 1-690); experiment: flow cytometry on H441 cells (endogenous NaPi2b), 24 h at 4 C, anti-human IgG Fc AF647, APC-A GeoMean
T5 construct: UniProt ID is given as 095436 [sic]; also called hNaPi2b; Hu NaPi2b
T5 sequence: T1 sequence

[16] = molecular target: T5, human sodium-dependent phosphate …; experiment: flow cytometry on HCC-78 cells (endogenous NaPi2b), 24 h at 4 C, anti-human IgG Fc AF647, APC-A GeoMean
[17] = molecular target: T5, human sodium-dependent phosphate …; experiment: flow cytometry on IGROV-1 cells (endogenous NaPi2b), 24 h at 4 C, anti-human IgG Fc AF647, APC-A GeoMean

B1: v38591-MC-GGFG-AM-Compound 139 DAR 8 (antibody, human IgG1, kappa)
heavy: not shown
light: DVQMTQSPSSLSASVGDRVTITCRASQDVYSYLNWYQQKPGKAVKLLIYYTSRLQSGVPSRFSGSGSGTDYTLTISSLQPEDFATYYCQQYNIFPWTFGQGTKLEIKRTVAAPSVFIFPPSDEQLKSGTASVVCLLNNFYPREAKVQWKVDNALQSGNSQESVTEQDSKDSTYSLSSTLTLSKADYEKHKVYACEVTHQGLSSPVTKSFNRGEC
modifications: drug-linker MC-GGFG-AM-Compound 139 on cysteine thiols after TCEP reduction, positions not given; DAR 8 for the whole antibody
notes: Antibody-drug conjugate of v38591 (IgG1/kappa); also called v38593
With B1 the “Internalized Fluorescence in OVCAR-3, 15 min, 100 nM” value [1] was 7380, the “Internalized Fluorescence in OVCAR-3, 4 hr, 100 nM” value [1] was 15600 and the “Internalized Fluorescence in OVCAR-3, 16 hr, 100 nM” value [1] was 16800. For the same binder, the “Internalized Fluorescence in OVCAR-3, 24 hr, 100 nM” value [1] was 26700, the Bmax [2] was 1530 and the Bmax (mouse NaPi2b [3]) was 396. It also gave a Bmax [4] of 1530, a Bmax (cynomolgus monkey NaPi2b [5]) of 408 and a Bmax [6] of 20500. For the same binder, the Kd [6] was 1.6 nM, the Bmax [7] was 14300 and the Kd [7] was 2.71 nM. It also gave a Kd (mouse NaPi2b [8]) of 0.64 nM and a Kd (cynomolgus monkey NaPi2b [9]) of 0.47 nM.

B2: v38591-MC-GGFG-AM-Compound 139 DAR 4 (antibody, human IgG1, kappa)
heavy: not shown
light: B1 light
modifications: drug-linker MC-GGFG-AM-Compound 139 on cysteine thiols after TCEP reduction, positions not given; DAR 4 for the whole antibody
notes: Antibody-drug conjugate of v38591 (IgG1/kappa)
With B2 the Bmax [2] was 1260, the Bmax (mouse NaPi2b [3]) was 538 and the Bmax [4] was 1260. It also gave a Bmax (cynomolgus monkey NaPi2b [5]) of 459, a Bmax [6] of 22700 and a Kd [6] of 1.7 nM. The Bmax [7] was 15500, the Kd [7] was 2.52 nM and the Kd (mouse NaPi2b [8]) was 1.49 nM. It also gave a Kd (cynomolgus monkey NaPi2b [9]) of 0.36 nM.

B3: v38591-MC-GGFG-AM-Compound 139 DAR 4 (antibody, human IgG1, kappa)
heavy: not shown
light: B1 light
modifications: drug-linker MC-GGFG-AM-Compound 139 on cysteines freed by TCEP reduction, DAR 4 over the whole antibody
In the case of B3, the “Internalized Fluorescence Fold-Over Untreated, H441, 4 h, 2.5 nM” value [10] is reported as 1.2 fold, the “Internalized Fluorescence Fold-Over Untreated, H441, 24 h, 2.5 nM” value [10] is reported as 2 fold and the “Internalized Fluorescence Fold-Over Untreated, HCC-78, 4 h, 2.5 nM” value [10] is reported as 5.6 fold. The “Internalized Fluorescence Fold-Over Untreated, HCC-78, 24 h, 2.5 nM” value [10] was 35.9 fold, the “Internalized Fluorescence Fold-Over Untreated, IGROV-1, 4 h, 2.5 nM” value [10] was 7.1 fold and the “Internalized Fluorescence Fold-Over Untreated, IGROV-1, 24 h, 2.5 nM” value [10] was 26.6 fold. The “EC50 (nM), in vitro cytotoxicity, H441 spheroids, 7 days” value [11] was 9.85 nM, the “EC50 (nM), in vitro cytotoxicity, H1781 spheroids, 7 days” value [11] was 0.95 nM and the “Bmax (MFI)” value [12] was 521 MFI. For the same binder, the Kd [12] was 0.74 nM, the “Bmax (MFI)” value [13] was 7810 MFI and the Kd [13] was 1.07 nM. The “Bmax (MFI)” value [14] was 10500 MFI and the Kd [14] was 0.82 nM.

B4: v40502 (LALADS)-MC-GGFG-AM-Compound 139 DAR 4 (antibody, human IgG1, kappa, L234A L235A)
heavy: not shown
light: B1 light
modifications: as above; MC-GGFG-AM-Compound 139 drug-linker on cysteines freed by TCEP reduction; sites not stated; DAR 4
notes: Antibody-drug conjugate of v40502
With B4 the “EC50 (read off the curve)” value [15] was about 0.6 nM, the “EC50 (read off the curve)” value [16] was about 3 nM and the “EC50 (read off the curve)” value [17] was about 2 nM.

B5: v40502 (LALADS) anti-NaPi2b antibody (antibody, human IgG1, kappa, L234A L235A)
heavy: not shown
light: B1 light
notes: v38591 with L234A, L235A and D265S (EU) in the Fc
For B5, the “EC50 (read off the curve)” value [15] was about 0.6 nM, the “EC50 (read off the curve)” value [16] was about 3 nM and the “EC50 (read off the curve)” value [17] was about 2 nM.

B6: v40502-MC-GGFG-AM-Compound 139 DAR 4 (antibody, human IgG1, kappa, L234A L235A)
heavy: not shown
light: B1 light
modifications: drug-linker MC-GGFG-AM-Compound 139 on cysteines freed by TCEP reduction, DAR 4 over the whole antibody
With B6 the “Internalized Fluorescence Fold-Over Untreated, H441, 4 h, 2.5 nM” value [10] was 1.2 fold, the “Internalized Fluorescence Fold-Over Untreated, H441, 24 h, 2.5 nM” value [10] was 1.9 fold and the “Internalized Fluorescence Fold-Over Untreated, HCC-78, 4 h, 2.5 nM” value [10] was 5.3 fold. For the same binder, the “Internalized Fluorescence Fold-Over Untreated, HCC-78, 24 h, 2.5 nM” value [10] was 36.5 fold, the “Internalized Fluorescence Fold-Over Untreated, IGROV-1, 4 h, 2.5 nM” value [10] was 6.8 fold and the “Internalized Fluorescence Fold-Over Untreated, IGROV-1, 24 h, 2.5 nM” value [10] was 25.4 fold. The “EC50 (nM), in vitro cytotoxicity, H441 spheroids, 7 days” value [11] was 7.57 nM, the “EC50 (nM), in vitro cytotoxicity, H1781 spheroids, 7 days” value [11] was 1.15 nM and the “Bmax (MFI)” value [12] was 518 MFI. The Kd [12] was 0.81 nM, the “Bmax (MFI)” value [13] was 7770 MFI and the Kd [13] was 1.12 nM. The “Bmax (MFI)” value [14] was 10700 MFI and the Kd [14] was 0.82 nM.
